Experimental data reported in doi:10.1101/2024.06.13.598777, “Acetylation of the yeast Hsp40 chaperone protein Ydj1 fine-tunes proteostasis and translational fidelity” (bioRxiv, 2024).
Substitutions are numbered along the chain they refer to. Names and notes keep the numbering of the source.

B1: His-tagged Ydj1 wild-type, biotinylated (natural protein, yeast, UniProt P25491 1-409, looked up)
chain: MVKETKFYDILGVPVTATDVEIKKAYRKCALKYHPDKNPSEEAAEKFKEASAAYEILSDPEKRDIYDQFGEDGLSGAGGAGGFPGGGFGFGDDIFSQFFGAGGAQRPRGPQRGKDIKHEISASLEELYKGRTAKLALNKQILCKECEGRGGKKGAVKKCTSCNGQGIKFVTRQMGPMIQRFQTECDVCHGTGDIIDPKDRCKSCNGKKVENERKILEVHVEPGMKDGQRIVFKGEADQAPDVIPGDVVFIVSERPHKSFKRDGDDLVYEAEIDLLTAIAGGEFALEHVSGDWLKVGIVPGEVIAPGMRKVIEGKGMPIPKYGGYGNLIIKFTIKFPENHFTSEENLKKLEEILPPRIVPAIPKKATVDECVLADFDPAKYNRTRASRGGANYDSDEEEQGGEGVQCASQ
modifications: biotin (labeled with a 1.5-fold excess of NHS-PEG4-Biotin)
notes: Ydj1, yeast Hsp40; YDJ1 gene PCR amplified from yeast genomic DNA into pRSETA; A fragment lacking the J-domain (delta J) co-purifies with the recombinant protein; also called Ydj1-biotin; HIS-Ydj1; source: E. coli Rosetta (DE3), purified (Ni-sepharose, Superdex 200)
B2: His-tagged Ydj1 K23Q, biotinylated (natural protein, yeast, UniProt P25491 1-409, looked up)
chain: B1 chain with K23Q
modifications: biotin (labeled with a 1.5-fold excess of NHS-PEG4-Biotin)
notes: Ydj1, yeast Hsp40, acetyl-mimic mutant; Same construct as m5 with the mutation; source: E. coli Rosetta (DE3), purified (Ni-sepharose, Superdex 200)
B3: His-tagged Ydj1 K23R, biotinylated (natural protein, yeast, UniProt P25491 1-409, looked up)
chain: B1 chain with K23R
modifications: biotin (labeled with a 1.5-fold excess of NHS-PEG4-Biotin)
notes: Same construct as m5 with the mutation; source: E. coli Rosetta (DE3), purified (Ni-sepharose, Superdex 200)
B4: His-tagged Ydj1 K37R, biotinylated (natural protein, yeast, UniProt P25491 1-409, looked up)
chain: B1 chain with K37R
modifications: biotin (labeled with a 1.5-fold excess of NHS-PEG4-Biotin)
notes: as for B3

What follows are binders tested against T1, Ssa1 (purified) (yeast, UniProt P10591 1-642) (assay: BLI; Ydj1-biotin (5 ug/ml) on streptavidin biosensors, Ssa1 1 uM in solution, 23 °C, 25 mM Hepes pH 7.5, 50 mM KCl, 2 mM DTT, 5 mM MgCl2, 0.5 mM ATP, 0.02% Tween-20; Octet R4; reference sensor subtracted). Settings: both partners purified.
T1 construct: Ssa1, yeast Hsp70; also called Hsp70; source: isolated as previously described [51]
T1 sequence (P10591 whole entry): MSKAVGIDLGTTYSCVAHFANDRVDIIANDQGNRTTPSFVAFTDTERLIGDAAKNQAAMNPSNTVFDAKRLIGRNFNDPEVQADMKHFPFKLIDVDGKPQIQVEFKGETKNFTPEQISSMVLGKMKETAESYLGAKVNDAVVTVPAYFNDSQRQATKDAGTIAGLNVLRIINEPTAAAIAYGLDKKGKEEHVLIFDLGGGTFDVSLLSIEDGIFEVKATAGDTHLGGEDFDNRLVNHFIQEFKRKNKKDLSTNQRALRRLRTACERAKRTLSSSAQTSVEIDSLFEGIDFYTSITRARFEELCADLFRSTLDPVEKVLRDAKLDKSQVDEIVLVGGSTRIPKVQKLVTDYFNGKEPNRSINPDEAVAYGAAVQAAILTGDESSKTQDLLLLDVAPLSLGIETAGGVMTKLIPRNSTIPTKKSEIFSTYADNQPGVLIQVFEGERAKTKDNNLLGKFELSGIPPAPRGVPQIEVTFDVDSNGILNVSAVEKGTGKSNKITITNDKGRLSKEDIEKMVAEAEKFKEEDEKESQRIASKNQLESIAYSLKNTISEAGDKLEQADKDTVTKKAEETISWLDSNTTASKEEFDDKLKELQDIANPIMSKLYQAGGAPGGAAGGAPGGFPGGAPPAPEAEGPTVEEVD

| binding result | Binder |
| --- | --- |
| binds | B1 |
| binds | B2 |
| binds | B3 |
| binds | B4 |
